From patent CN110590951A (ANMENGDE MEDICAL TECH SHANGHAI CO LTD, dated 2019)

Key:
[1] = target: T1, 重组鼠ROR1蛋白 (recombinant mouse ROR1 protein, ACROBiosystems RO1-M5221) (mouse, UniProt Q9Z139 30-403); test: ELISA, recombinant mouse ROR1 coated at 1 μg/mL, G3 titrated from 15 μg/ml
T1 construct: Bought protein

[2] = target: T2, 人ROR1蛋白卷曲(Frizzled)域 (recombinant ROR1 Frizzled domain, ACROBiosystems RO1-H5222) (human, UniProt Q01973 165-305); test: ELISA, recombinant ROR1 Frizzled domain coated at 1 μg/mL, G3 titrated from 20 μg/ml
T2 construct: domain: 卷曲(Frizzled)域; Bought domain protein; also called 卷曲结构域; Frizzled结构域
T2 sequence (Q01973 165-305 limits assumed): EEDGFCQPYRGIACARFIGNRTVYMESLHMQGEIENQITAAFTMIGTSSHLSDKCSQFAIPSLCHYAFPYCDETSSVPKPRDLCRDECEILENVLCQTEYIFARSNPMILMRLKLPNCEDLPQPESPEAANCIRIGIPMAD

[3] = target: T3, 重组人ROR1蛋白 (recombinant human ROR1 protein, ACROBiosystems RO1-H522y) (human, UniProt Q01973 30-403); test: ELISA, recombinant human ROR1 coated at 1 μg/mL, G3 titrated from 0.6 μg/ml
T3 construct: Bought protein
T3 sequence (Q01973 30-403 limits assumed): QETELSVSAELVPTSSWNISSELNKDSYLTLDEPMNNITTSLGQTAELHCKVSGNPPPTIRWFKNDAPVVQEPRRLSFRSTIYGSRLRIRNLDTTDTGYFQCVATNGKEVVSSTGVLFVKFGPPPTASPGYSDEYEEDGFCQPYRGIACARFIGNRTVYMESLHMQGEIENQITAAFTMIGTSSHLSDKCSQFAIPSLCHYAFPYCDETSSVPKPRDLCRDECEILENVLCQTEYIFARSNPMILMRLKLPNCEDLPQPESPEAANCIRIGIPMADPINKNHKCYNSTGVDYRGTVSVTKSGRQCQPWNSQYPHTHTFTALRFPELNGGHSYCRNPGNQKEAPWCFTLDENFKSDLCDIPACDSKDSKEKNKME

[4] = target: T4, 人ROR1 on the cell surface (endogenous on JeKo-1 cells; overexpressed on CHO-K1-hROR1 cells) (human, UniProt Q01973 30-937); test: Flow cytometry on JeKo-1 cells (endogenous ROR1), G3 titrated from 20 μg/mL
T4 construct: whole, on cells; also called JeKo-1细胞ROR1蛋白; CHO-K1-hROR1细胞表面的ROR1
T4 sequence (Q01973 30-937): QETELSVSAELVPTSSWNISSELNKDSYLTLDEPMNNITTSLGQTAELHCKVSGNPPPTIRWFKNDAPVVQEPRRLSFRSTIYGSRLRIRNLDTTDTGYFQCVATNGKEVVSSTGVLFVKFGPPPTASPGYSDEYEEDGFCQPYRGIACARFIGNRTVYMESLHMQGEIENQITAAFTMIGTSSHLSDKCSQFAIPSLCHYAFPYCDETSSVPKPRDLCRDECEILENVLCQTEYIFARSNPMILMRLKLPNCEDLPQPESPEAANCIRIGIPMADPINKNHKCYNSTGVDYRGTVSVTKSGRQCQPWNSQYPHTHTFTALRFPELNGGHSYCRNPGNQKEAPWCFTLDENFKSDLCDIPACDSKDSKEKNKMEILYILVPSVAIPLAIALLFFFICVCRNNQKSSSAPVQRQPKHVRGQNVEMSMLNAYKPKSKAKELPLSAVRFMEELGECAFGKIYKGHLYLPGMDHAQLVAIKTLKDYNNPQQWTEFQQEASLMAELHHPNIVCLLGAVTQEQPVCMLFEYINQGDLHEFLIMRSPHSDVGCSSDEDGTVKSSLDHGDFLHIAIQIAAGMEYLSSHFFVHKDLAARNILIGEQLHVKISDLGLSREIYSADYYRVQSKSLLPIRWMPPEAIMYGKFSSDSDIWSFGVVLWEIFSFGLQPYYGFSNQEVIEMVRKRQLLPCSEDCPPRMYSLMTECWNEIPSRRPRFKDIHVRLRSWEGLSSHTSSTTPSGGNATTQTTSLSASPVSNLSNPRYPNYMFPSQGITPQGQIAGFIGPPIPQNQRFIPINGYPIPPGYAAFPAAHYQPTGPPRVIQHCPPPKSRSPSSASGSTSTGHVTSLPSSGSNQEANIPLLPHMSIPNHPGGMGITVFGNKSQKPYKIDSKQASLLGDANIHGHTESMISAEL

T1 sequence (Q9Z139 30-403 limits assumed): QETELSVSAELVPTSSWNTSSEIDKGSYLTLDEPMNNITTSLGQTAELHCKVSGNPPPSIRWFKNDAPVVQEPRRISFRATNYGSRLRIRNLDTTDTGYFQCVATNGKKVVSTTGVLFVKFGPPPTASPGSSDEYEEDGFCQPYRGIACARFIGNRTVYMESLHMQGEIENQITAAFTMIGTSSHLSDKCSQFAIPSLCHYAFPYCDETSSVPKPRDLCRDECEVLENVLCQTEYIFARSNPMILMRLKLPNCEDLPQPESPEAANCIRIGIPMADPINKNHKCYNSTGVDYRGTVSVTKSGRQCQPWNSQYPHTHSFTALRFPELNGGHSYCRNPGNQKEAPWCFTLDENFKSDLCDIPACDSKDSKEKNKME

- binding result [1]: binds
- binding result [2]: binds
- binding result [3]: binds
- binding result [4]: binds
B1: 抗ROR1的全人源单克隆抗体G3 (antibody, human IgG1, kappa, V domains shown)
VH: QVQLQQWGAGLLKPSETLSLTCAVYGGSFSGYYWSWIRQPPGKGLEWIGEINHSGSTSYNPSLKSRVTISVDTSKNQFSLKLSSVTAADTAVYYCARGHSSGWYRRYFDLWGRGTLVTVSS
VL: IVLTQSPATLSLSPGERATLSCRASQSVSSYLAWYQQKPGQAPRLLIYDASNRATGIPAKFSGSGSGTDFTLTISSLEPEDFAVYYCQQRSNWPPTFGGGTKVEIKR
notes: Full-length fully human IgG1/kappa, expressed in Expi-CHO-S and purified on Protein A (150 kDa); also called G3单克隆抗体; 抗人ROR1抗体G3
